The chains are these.
B1: Ankyrin repeat and SOCS box protein 14, residues 532 to 572; numbered along this chain, A6NK59 (parent)
chain: RSLKHLCRLKIRKCMGRLHLRCPVFMSFLPLPNRLKAYVLY

± gives the uncertainty stated by the source.

In the data set the parent is B1. Put plainly: abundance fitness (aPCA) (normalised: wild type 0, dead -1); higher = more abundant; growth selection in yeast, the domain comes from the species named. The settings on record: Homo sapiens.
In the case of RSLKHLCRLKIRKCMGRLHLRCPVFMSFLPLDNRLKAYVLY [P32D], the abundance fitness is -0.998 ± 0.29.
In the case of RSLKHLCRLKIRKCMGRLHLRCPVFMSFLPLANRLKAYVLY [P32A], the abundance fitness is 0.08 ± 0.048.
Take RSLKHLCRLKIRKCMGRLHLRCPVFMSFLPLCNRLKAYVLY [P32C]: the abundance fitness stood at 0.239 ± 0.062.
The figure for RSLKHLCRLKIRKCMGRLHLRCPVFMSFKPLPNRLKAYVLY [L29K] is -0.299 ± 0.076; for RSLKHLCRLKIRKCMGRLHLRCPVFMSFEPLPNRLKAYVLY [L29E] it is -0.672 ± 0.093.
The figure for RSLKHLCRLKIRKCMGRLHLRCPVFMSFIPLPNRLKAYVLY [L29I] is -0.037 ± 0.12; for RSLKHLCRLKIRKCMGRLHLRCPVFMSFSPLPNRLKAYVLY [L29S] it is -0.258 ± 0.065; for RSLKHLCRLKIRKCMGRLHLRCPVFMSFYPLPNRLKAYVLY [L29Y] it is -0.53 ± 0.48.
Turning to RSLKHLCRLKIRKCMGRLHLRCPVFMSFPPLPNRLKAYVLY [L29P], the abundance fitness was -0.342 ± 0.06.
As to RSLKHLCRLKIRKCMGRLHLRCPVFMSFAPLPNRLKAYVLY [L29A], the abundance fitness was -0.356 ± 0.053.
The figure for RSLKHLCRLKIRKCMGRLHLRCPVFMSFMPLPNRLKAYVLY [L29M] is -0.618 ± 0.21.
For the variant RSLKHLCRLKIRKCMGRLHLRCPVFMSFTPLPNRLKAYVLY [L29T], the abundance fitness is -0.455 ± 0.099.
For RSLKHLCRLKIRKCMGRLHLRCPVFMSFDPLPNRLKAYVLY [L29D] the value was -0.435 ± 0.087; for RSLKHLCRLKIRKCMGRLHLRCPVFMSFVPLPNRLKAYVLY [L29V], -0.353 ± 0.057; for RSLKHLCRLKIRKCMGRLHLRCPVFMSFGPLPNRLKAYVLY [L29G], -0.349 ± 0.052.
Turning to RSLKHLCRLKIRKCMGRLHLRCPVFMSFFPLPNRLKAYVLY [L29F], the abundance fitness was -0.473 ± 0.11.
Regarding RSLKHLCRLKIRKCMGRLHLRCPVFMSFLPEPNRLKAYVLY [L31E], the abundance fitness is -0.846 ± 0.11.
In the case of RSLKHLCRLKIRKCMGRLHLRCPVFMSFLPAPNRLKAYVLY [L31A], the abundance fitness is -0.272 ± 0.054.
In the case of RSLKHLCRLKIRKCMGRLHLRCPVFMSFLPGPNRLKAYVLY [L31G], the abundance fitness is -0.28 ± 0.052.
For RSLKHLCRLKIRKCMGRLHLRCPVFMSFLPMPNRLKAYVLY [L31M] the value was -0.301 ± 0.11.
For RSLKHLCRLKIRKCMGRLHLRCPVFMSFLPHPNRLKAYVLY [L31H] the value was -0.434 ± 0.23; for RSLKHLCRLKIRKCMGRLHLRCPVFMSFLPWPNRLKAYVLY [L31W], -0.187 ± 0.049.
For RSLKHLCRLKIRKCMGRLHLRCPVFMSFLPKPNRLKAYVLY [L31K], the abundance fitness is -0.529 ± 0.079.
For RSLKHLCRLKIRKCMGRLHLRCPVFMSFLPTPNRLKAYVLY [L31T], the abundance fitness is -0.439 ± 0.11.
The figure for RSLKHLCRLKIRKCMGRLHLRCPVFMSFLPRPNRLKAYVLY [L31R] is -0.338 ± 0.05.
Regarding RSLKHLCRLKIRKCMGRLHLRCPVFMSFLPYPNRLKAYVLY [L31Y], the abundance fitness is -0.795 ± 0.14.
The figure for RSLKHLCRLKIRKCMGRLHLRCPVFMSFLPIPNRLKAYVLY [L31I] is -0.006 ± 0.072.
Consider RSLKHLCRLKIRKCMGRLHLRCPVFMSFLPSPNRLKAYVLY [L31S], for which the abundance fitness was -0.113 ± 0.06.
The figure for RSLKHLCRLKIRKCMGRLHLRCPVFMSFLPDPNRLKAYVLY [L31D] is -0.256 ± 0.16; for RSLKHLCRLKIRKCMGRLHLRCPVFMSFLPPPNRLKAYVLY [L31P] it is -0.476 ± 0.46.
Consider RSLKHLCRLKIRKCMGRLHLRCPVFMSFLPQPNRLKAYVLY [L31Q], for which the abundance fitness was -0.656 ± 0.11.
For RSLKHLCRLKIRKCMGRLHLRCPVFMSFLPVPNRLKAYVLY [L31V] the value was -0.086 ± 0.048; for RSLKHLCRLKIRKCMGRLHLRCPVFMSFLGLPNRLKAYVLY [P30G], 0.337 ± 0.047.
The figure for RSLKHLCRLKIRKCMGRLHLRCPVFMSFLELPNRLKAYVLY [P30E] is 0.4 ± 0.053; for RSLKHLCRLKIRKCMGRLHLRCPVFMSFLFLPNRLKAYVLY [P30F] it is -0.182 ± 0.071; for RSLKHLCRLKIRKCMGRLHLRCPVFMSFLDLPNRLKAYVLY [P30D] it is 0.325 ± 0.061.
Turning to RSLKHLCRLKIRKCMGRLHLRCPVFMSFLILPNRLKAYVLY [P30I], the abundance fitness is -0.217 ± 0.065.
With RSLKHLCRLKIRKCMGRLHLRCPVFMSFLALPNRLKAYVLY [P30A], the abundance fitness was determined as 0.417 ± 0.042.
For RSLKHLCRLKIRKCMGRLHLRCPVFMSFLYLPNRLKAYVLY [P30Y] the value was -0.067 ± 0.087; for RSLKHLCRLKIRKCMGRLHLRCPVFMSFLMLPNRLKAYVLY [P30M], 0.26 ± 0.068.
The figure for RSLKHLCRLKIRKCMGRLHLRCPVFMSFLCLPNRLKAYVLY [P30C] is 0.197 ± 0.053; for RSLKHLCRLKIRKCMGRLHLRCPVFMSFLRLPNRLKAYVLY [P30R] it is 0.485 ± 0.043; for RSLKHLCRLKIRKCMGRLHLRCPVFMSFLLLPNRLKAYVLY [P30L] it is 0.151 ± 0.048.
The figure for RSLKHLCRLKIRKCMGRLHLRCPVFMSFLVLPNRLKAYVLY [P30V] is -0.009 ± 0.047.
For the variant RSLKHLCRLKIRKCMGRLHLRCPVFMSFLTLPNRLKAYVLY [P30T], the abundance fitness turned out to be 0.313 ± 0.06.
For RSLKHLCRLKIRKCMGRLHLRCPVFMSFLSLPNRLKAYVLY [P30S], the abundance fitness stood at 0.424 ± 0.043.
For RSLKHLCRLKIRKCMGRLHLRCPVFMSILPLPNRLKAYVLY [F28I] the value was 0.001 ± 0.07; for RSLKHLCRLKIRKCMGRLHLRCPVFMSVLPLPNRLKAYVLY [F28V], -0.156 ± 0.047.
The figure for RSLKHLCRLKIRKCMGRLHLRCPVFMSLLPLPNRLKAYVLY [F28L] is 0.128 ± 0.055.
As for RSLKHLCRLKIRKCMGRLHLRCPVFMSELPLPNRLKAYVLY [F28E], the abundance fitness was 0.27 ± 0.13.
For RSLKHLCRLKIRKCMGRLHLRCPVFMSKLPLPNRLKAYVLY [F28K] the value was 0.221 ± 0.046.
For the variant RSLKHLCRLKIRKCMGRLHLRCPVFMSHLPLPNRLKAYVLY [F28H], the abundance fitness is 0.199 ± 0.11.
For RSLKHLCRLKIRKCMGRLHLRCPVFMSTLPLPNRLKAYVLY [F28T] the value was -0.237 ± 0.061; for RSLKHLCRLKIRKCMGRLHLRCPVFMSQLPLPNRLKAYVLY [F28Q], 0.066 ± 0.065; for RSLKHLCRLKIRKCMGRLHLRCPVFMSDLPLPNRLKAYVLY [F28D], -0.056 ± 0.067.
For RSLKHLCRLKIRKCMGRLHLRCPVFMSRLPLPNRLKAYVLY [F28R] the value was 0.104 ± 0.051; for RSLKHLCRLKIRKCMGRLHLRCPVFMSWLPLPNRLKAYVLY [F28W], 0.177 ± 0.052.
Consider RSLKHLCRLKIRKCMGRLHLRCPVFMSMLPLPNRLKAYVLY [F28M], for which the abundance fitness is -0.127 ± 0.097.
Take RSLKHLCRLKIRKCMGRLHLRCPVFMSPLPLPNRLKAYVLY [F28P]: the abundance fitness was -0.322 ± 0.088.
In the case of RSLKHLCRLKIRKCMGRLHLRCPVFMSSLPLPNRLKAYVLY [F28S], the abundance fitness was -0.05 ± 0.075.
RSLKHLCRLKIRKCMGRLHLRCPVFMSNLPLPNRLKAYVLY [F28N]: the abundance fitness was found to be 0.005 ± 0.13.
On to RSLKHLCRLKIRKCMGRLHLRCPVFMSYLPLPNRLKAYVLY [F28Y], for which the abundance fitness was -0.01 ± 0.12.

Source of the values: the Human Domainome abundance scans (Beltran et al. 2025).
